Tests used:
Test in all cases: ELISA, antigen coated at 10 µg/ml
[1] = target: T1, botulinum neurotoxin serotype C (BoNT/C) (UniProt P18640 2-1291)
T1 sequence: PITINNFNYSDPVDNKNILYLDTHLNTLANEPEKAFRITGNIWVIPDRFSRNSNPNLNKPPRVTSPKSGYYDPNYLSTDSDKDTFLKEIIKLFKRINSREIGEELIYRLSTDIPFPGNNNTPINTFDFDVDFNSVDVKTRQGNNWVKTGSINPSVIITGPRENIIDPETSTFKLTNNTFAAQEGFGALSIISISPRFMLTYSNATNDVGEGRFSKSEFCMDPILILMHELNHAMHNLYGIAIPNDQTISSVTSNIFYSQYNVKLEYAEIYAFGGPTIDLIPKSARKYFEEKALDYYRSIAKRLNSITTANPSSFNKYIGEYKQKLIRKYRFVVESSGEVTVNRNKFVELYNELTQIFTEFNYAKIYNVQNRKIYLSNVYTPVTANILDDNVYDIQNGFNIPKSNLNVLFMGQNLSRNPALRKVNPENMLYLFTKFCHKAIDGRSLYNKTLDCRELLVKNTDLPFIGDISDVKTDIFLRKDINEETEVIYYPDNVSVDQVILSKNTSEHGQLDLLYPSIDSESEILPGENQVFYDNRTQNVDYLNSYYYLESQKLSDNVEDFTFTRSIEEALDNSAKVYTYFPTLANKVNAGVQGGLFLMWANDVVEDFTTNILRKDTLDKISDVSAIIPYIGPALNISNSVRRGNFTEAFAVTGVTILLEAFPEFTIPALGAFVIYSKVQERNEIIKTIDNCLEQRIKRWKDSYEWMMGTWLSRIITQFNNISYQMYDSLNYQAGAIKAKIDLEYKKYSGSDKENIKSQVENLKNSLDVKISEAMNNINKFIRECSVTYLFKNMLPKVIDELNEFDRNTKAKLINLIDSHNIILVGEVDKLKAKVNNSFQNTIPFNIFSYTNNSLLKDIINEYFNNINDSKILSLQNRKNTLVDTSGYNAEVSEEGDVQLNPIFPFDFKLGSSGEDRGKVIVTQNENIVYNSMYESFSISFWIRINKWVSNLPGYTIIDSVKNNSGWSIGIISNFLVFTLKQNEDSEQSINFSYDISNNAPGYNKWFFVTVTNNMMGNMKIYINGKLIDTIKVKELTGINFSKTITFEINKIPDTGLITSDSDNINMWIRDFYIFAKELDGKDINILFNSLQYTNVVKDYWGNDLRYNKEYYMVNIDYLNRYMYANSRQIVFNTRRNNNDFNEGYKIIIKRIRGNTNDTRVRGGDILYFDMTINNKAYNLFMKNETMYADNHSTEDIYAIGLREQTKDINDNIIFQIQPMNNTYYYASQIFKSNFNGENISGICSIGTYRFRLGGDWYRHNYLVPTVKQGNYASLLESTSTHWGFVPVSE

[2] = target: BoNT/A HN, recombinant translocation domain of botulinum neurotoxin serotype A (Clostridium botulinum, UniProt P0DPI0 449-870)
[3] = target: T2, botulinum neurotoxin serotype E (BoNT/E) (UniProt Q00496 2-1251)
T2 sequence: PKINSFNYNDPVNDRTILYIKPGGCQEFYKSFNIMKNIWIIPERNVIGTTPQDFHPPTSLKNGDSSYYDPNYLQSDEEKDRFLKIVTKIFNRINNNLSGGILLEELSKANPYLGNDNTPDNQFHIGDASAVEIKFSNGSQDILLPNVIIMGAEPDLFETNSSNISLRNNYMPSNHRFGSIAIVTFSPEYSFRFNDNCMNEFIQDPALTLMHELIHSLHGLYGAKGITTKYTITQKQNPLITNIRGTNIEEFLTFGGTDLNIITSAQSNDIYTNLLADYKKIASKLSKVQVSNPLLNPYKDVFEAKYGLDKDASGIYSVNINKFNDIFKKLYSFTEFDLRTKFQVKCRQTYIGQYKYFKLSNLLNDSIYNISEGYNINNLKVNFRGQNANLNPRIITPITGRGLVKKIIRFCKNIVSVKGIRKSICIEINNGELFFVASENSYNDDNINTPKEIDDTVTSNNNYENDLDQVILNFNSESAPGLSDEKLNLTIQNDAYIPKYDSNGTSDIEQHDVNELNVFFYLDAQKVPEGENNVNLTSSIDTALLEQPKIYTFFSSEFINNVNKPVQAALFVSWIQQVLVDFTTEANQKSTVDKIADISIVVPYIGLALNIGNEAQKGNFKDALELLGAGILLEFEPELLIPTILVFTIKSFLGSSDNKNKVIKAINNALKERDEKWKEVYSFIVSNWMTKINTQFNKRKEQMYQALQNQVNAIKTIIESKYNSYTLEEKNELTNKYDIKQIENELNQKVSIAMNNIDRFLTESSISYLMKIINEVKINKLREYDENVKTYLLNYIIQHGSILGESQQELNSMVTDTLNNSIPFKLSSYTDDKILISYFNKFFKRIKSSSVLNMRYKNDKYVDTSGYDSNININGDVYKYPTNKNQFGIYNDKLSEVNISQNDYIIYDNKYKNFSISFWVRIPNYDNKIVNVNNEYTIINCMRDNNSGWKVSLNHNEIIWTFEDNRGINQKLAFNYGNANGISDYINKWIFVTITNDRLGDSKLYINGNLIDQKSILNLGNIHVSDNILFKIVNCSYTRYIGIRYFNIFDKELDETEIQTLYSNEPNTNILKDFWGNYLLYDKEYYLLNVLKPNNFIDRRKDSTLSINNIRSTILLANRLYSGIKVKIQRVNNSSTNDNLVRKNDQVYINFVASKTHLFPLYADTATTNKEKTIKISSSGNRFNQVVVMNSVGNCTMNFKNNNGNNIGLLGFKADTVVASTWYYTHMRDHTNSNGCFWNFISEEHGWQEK

[4] = target: T3, botulinum neurotoxin serotype B (BoNT/B) (UniProt P10844 2-1291)
T3 sequence: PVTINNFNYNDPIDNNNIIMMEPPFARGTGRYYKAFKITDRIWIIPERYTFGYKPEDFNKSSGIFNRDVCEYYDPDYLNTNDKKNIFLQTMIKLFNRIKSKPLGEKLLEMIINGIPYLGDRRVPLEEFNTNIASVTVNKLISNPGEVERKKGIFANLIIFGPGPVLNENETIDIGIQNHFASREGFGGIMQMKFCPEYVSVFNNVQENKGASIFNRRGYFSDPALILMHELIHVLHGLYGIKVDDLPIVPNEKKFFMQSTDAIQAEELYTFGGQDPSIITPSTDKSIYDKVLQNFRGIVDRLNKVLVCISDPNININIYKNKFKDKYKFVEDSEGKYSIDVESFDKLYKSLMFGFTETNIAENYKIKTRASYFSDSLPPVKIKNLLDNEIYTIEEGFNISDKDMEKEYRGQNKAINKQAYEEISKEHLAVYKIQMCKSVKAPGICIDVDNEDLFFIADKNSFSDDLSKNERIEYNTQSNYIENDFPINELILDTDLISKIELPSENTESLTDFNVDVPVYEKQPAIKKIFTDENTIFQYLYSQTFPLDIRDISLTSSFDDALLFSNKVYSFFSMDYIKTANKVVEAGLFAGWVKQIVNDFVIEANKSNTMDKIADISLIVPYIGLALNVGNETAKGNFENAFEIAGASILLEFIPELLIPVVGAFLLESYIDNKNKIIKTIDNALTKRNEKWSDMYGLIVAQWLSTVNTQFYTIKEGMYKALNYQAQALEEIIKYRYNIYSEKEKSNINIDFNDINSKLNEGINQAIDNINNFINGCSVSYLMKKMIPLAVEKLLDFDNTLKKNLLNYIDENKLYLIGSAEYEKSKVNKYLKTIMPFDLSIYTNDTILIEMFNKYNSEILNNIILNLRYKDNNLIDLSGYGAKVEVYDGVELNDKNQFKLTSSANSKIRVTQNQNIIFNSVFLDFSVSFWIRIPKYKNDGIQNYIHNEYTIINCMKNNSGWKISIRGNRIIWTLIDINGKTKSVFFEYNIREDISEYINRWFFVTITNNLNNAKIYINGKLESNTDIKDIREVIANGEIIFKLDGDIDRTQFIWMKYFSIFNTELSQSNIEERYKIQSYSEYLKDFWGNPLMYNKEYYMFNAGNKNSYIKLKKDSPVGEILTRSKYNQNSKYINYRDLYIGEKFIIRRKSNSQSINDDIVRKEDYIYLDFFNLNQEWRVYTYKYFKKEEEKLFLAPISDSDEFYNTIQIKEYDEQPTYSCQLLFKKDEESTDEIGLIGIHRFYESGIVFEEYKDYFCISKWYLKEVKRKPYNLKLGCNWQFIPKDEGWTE

Measured: binding result

BoNT/A HN, recombinant translocation domain of botulinum neurotoxin serotype A, sequence (P0DPI0 449-870 limits assumed): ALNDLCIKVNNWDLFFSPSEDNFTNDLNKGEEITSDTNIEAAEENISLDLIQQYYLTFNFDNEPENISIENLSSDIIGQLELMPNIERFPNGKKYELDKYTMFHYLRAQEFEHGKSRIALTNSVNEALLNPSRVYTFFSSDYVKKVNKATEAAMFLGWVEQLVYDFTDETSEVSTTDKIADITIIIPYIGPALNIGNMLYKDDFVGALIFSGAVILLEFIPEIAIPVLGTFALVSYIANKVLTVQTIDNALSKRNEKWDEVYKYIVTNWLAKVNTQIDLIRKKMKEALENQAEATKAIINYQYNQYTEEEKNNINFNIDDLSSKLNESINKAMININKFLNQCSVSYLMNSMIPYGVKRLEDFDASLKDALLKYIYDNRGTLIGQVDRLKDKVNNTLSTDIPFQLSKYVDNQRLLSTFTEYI

B1: scFv 3D12 (human, immune library) (scFv, V domains shown)
VH: QVQLVQSGGGVVHPGRSLKLSCAGSGFTFSDYDMHWVRQAPGKGLEWVAVMWFDGTEKYSAESVKGRFTISRDNSKNTLFLQMNSLRADDTAVYYCAREPDWLLWGDRGALDVWGQGTTVTVSS
VL: DIVMTQSPSTLSASVGDRVTITCRASQSISSWLAWYQQKPGKAPKLLMYEASSLESGVPSRFSGSGSGTEFTLTISSLQPDDFAAYYCQHYNTYPYTFGQGTKLEIKR
no binding: [1] | [2] | [3] | [4]
